Results reported in PMC1474074.
Where two headings read alike, the source gives them in different places.

Key:
streptavidin [1] = molecular target: T1, streptavidin (UniProt P22629 25-183); assay: EMSA
streptavidin [2] = molecular target: T1, streptavidin; assay: EMSA; remark: listed apart in the source

T1 sequence (P22629 25-183): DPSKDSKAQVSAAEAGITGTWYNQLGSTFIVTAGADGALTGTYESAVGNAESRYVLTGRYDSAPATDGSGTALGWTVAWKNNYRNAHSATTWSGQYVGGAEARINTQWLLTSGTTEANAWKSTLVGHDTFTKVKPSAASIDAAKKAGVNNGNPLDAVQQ

Binder	binding result (streptavidin [1])	binding result (streptavidin [2])
B-siRNA (anti-lamin A/C) (dsRNA, 5'-biotin on sense strand) RNA 1: GGAACUGGACUUCCAGAAGAACAUCUA RNA 2: UAGAUGUUCUUCUGGAAGUCCAGUUCC	binds	–
BSS-siRNA (anti-lamin A/C) (dsRNA, 5'-biotin via C6 S-S disulfide linker on sense strand) RNA 1: GGAACUGGACUUCCAGAAGAACAUCUA RNA 2: UAGAUGUUCUUCUGGAAGUCCAGUUCC	–	binds
